Measurements reported in publication PMC10946715.

Biological target: Cyc15 (Streptomyces sp. NL15-2 K)
Assay: crystal structure; X-ray crystal structure of Cyc15 at 1.7 Å, molecular replacement with an AlphaFold 2.0 search model; asymmetric unit with two molecules (Chain A and Chain B)

stoichiometry N: 2
Substance: Cyc15 (enzyme)
